Here are results for one molecule from paper PMC2690590, “Functional recombinant MHC class II molecules and high-throughput peptide-binding assays” (Immunome Research, 2009).

Experiment [1] concerns the target T1, DR1 (DRA*0101/DRB1*0101) (Homo sapiens, UniProt P01903+P01911, A100R/D57E/F55L/F60I/F76Y/I96L/L162R/M171V/P40L/Q125E/R42F/V115G/Y59C). The experiment can be described thus: Competitive peptide-HLA-DR1 binding assay, radioactive spun column. The note with it: competition with 125I labelled (Y)HA306–318, spun column assay.
Experiment [2] concerns the target T1, DR1 (DRA*0101/DRB1*0101). The experiment can be described thus: Scintillation proximity assay (SPA), competitive, DR1. Type of experiment: binding. Conditions: 30 nM DR1 α and β chain; 2 nM 125I labeled YHA306-318; refolding buffer pH 8; 24 h 18°C; streptavidin SPA beads. In general terms: SPA uses beads or plates that emit light when radiolabelled molecules are held near them.

B1: Invariant Chain: a recombinant version of the extracellular part of human invariant chain (positions 73–208) (protein)
chain: QQQGRLDKLTVTSQNLQLENLRMKLPKPPKPVSKMRMATPLLMQALPMGALPQGPMQNATKYGNMTEDHVMHLLQNADPLKVYPPLKGSFPENLRHLKNTMETIDWKVFESWMHHWLLFEMSRHSLEQKPTDAPPK
B1: the “binder to DR1 (in words)” value with DR1 (DRA*0101/DRB1*0101) [1] is listed as “good binders”. In the experiment with DR1 (DRA*0101/DRB1*0101) [2], the “binder to DR1 (in words), SPA” value is on record as “good binders”.
